Results: patent US20260098102A1 (NATIONAL UNIVERSITY CORPORATION KOBE UNIVERSITY, published 2026)

Experiments:
[1] = target: T1, human SIRPA_V2 protein (human, UniProt P78324 31-504); test: blocking cell-based ELISA: peroxidase-labeled CD47-Fc (1 µg/mL) on 293α cells expressing SIRPA_V2
T1 construct: Expressed on 293α cells from pcDNA3.2 V5-DEST or pFLAG V5-DEST (FLAG-tagged) vectors; also called human SIRPA Variant 2; ECD variant (full-length, amino acids 1 to 504)
Procedure: (§1) After the culture supernatant of the human SIRPA_V1 or V2 expression vector-introduced 293 cells prepared in Example 9)-1 was removed, 50 μL per well of various anti-SIRPA antibodies or various control Human IgG diluted with 5% FBS-containing PBS to a final concentration of 0 to 10,000 ng/ml was added to each of pcDNA3.2 V5-DEST-SIRPA_V1 or V2-introduced 293α cells, immediately followed by addition of 50 µL per well of peroxidase-labeled CD47-Fc prepared with 5% FBS-containing PBS at 1 μg/mL, and the mixture was allowed to stand at 4° C. for one hour. Thereafter, the SIRPA-CD47 binding inhibitory activity was evaluated in the same manner as in 1)-6-3.

[2] = target: T2, human SIRPB (human, UniProt O00241 30-398); test: flow cytometry on CHO-K1 cells expressing FLAG-tagged human SIRPB; PE anti-human IgG; MFI standardized to secondary antibody alone
T2 construct: whole, on cells; FLAG-tagged (pFLAG V5-DEST), on CHO-K1 cells; also called SIRPβ1; signal regulatory protein β1
T2 sequence (O00241 30-398): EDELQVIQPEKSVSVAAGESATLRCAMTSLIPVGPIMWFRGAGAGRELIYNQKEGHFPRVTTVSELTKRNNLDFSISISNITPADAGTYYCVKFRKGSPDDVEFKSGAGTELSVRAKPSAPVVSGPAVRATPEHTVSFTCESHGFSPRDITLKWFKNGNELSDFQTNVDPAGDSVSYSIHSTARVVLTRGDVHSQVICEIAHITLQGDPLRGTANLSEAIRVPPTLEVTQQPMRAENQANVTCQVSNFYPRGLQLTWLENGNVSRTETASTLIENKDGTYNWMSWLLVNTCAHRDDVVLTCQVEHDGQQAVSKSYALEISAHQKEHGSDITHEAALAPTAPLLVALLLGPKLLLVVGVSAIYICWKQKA
Procedure: SIRPβ1 (signal regulatory protein β1: the amino acid sequence thereof is published as RefSeq accession number NP_006056) and SIRPγ (signal regulatory protein γ: the amino acid sequence thereof is published as RefSeq accession number NP_061026) are molecules belonging to the SIRPA family. In the present invention, “SIRPα” may be referred to as “SIRPA,” “SIRPβ1” may be referred to as […] and “SIRPγ” may be referred to as “SIRPG.” CHO-K1 cells were prepared in a 10% FBS-containing Ham's F-12K medium at 3.3×10⁵ cells/mL and cultured overnight at 37° C. under a 5% CO₂ condition. pFLAG V5-DEST-human SIRPβ, pFLAG V5-DEST-human SIRPG, or pFLAG V5-DEST was introduced into the cells using Lipofectamine LTX (Invitrogen), and cells were cultured in a 10% FBS-containing Ham's F-12K medium at 37° C. under a 5% CO₂ condition for 24 hours. The obtained introduced cells were collected and seeded on a 96-well plate. After the culture supernatant was removed, 100 μL per well of various anti-human SIRPA antibodies or various control human IgG was added to each of various gene introduced cells at a final concentration of 0 to 10,000 ng/mL, and the mixture was allowed to stand at 4° C. for 25 minutes. After the mixture was centrifuged, the supernatant was removed, and cells were washed twice with 5% FBS-containing PBS. After the mixture was centrifuged, the supernatant was removed, 50 μL per well of a 1/400 diluted solution of PE Mouse anti-Human IgG antibody (BioLegend) was added, and the mixture was allowed to stand at 4° C. for 25 minutes. After the mixture was centrifuged, the supernatant was removed, and cells were washed twice with 5% FBS-containing PBS.
(§2) After the mixture was centrifuged, and the supernatant was removed, cells were suspended in 100 μL per well of 1× BD Stabilizing Fixative (Becton Dickinson), and the cell count was measured by flow cytometry (FACS Canto II: Becton Dickinson). For data analysis, FlowJo (TreeStar) was used. Cells were characterized by detecting forward scattered (FSC) light and side-scattered (SSC) light, and then the mean fluorescence intensity of PE was calculated. Binding of various antibodies to the family molecules was calculated by standardizing the fluorescence intensity using the mean fluorescence intensity of a sample in which the secondary antibody alone was allowed to react.

[3] = target: T3, human SIRPA_V1 protein (human, UniProt P78324 31-504); test: blocking cell-based ELISA: peroxidase-labeled CD47-Fc (1 µg/mL) on 293α cells expressing SIRPA_V1
T3 construct: Expressed on 293α cells from pcDNA3.2 V5-DEST or pFLAG V5-DEST (FLAG-tagged) vectors; also called human SIRPA Variant 1; hSIRPA V1
T3 sequence (P78324 31-504 limits assumed): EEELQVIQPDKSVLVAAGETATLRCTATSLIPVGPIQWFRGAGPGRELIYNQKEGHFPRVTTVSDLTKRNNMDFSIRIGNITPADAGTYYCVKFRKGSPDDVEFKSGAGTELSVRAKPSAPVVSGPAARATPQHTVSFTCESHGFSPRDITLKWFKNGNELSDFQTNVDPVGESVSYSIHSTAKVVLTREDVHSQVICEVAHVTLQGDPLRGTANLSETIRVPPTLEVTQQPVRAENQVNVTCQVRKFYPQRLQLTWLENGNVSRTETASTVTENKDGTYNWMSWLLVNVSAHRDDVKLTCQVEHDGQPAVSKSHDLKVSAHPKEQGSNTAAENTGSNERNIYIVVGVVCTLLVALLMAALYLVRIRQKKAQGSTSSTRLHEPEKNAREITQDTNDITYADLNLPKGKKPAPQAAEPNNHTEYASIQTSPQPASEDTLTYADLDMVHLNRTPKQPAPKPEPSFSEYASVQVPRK
Procedure: as §1

[4] = target: T4, human SIRPG (human, UniProt Q9P1W8 29-387); test: flow cytometry on CHO-K1 cells expressing FLAG-tagged human SIRPG; PE anti-human IgG; MFI standardized to secondary antibody alone
T4 construct: whole, on cells; FLAG-tagged (pFLAG V5-DEST), on CHO-K1 cells; also called SIRPγ; signal regulatory protein γ
T4 sequence (Q9P1W8 29-387): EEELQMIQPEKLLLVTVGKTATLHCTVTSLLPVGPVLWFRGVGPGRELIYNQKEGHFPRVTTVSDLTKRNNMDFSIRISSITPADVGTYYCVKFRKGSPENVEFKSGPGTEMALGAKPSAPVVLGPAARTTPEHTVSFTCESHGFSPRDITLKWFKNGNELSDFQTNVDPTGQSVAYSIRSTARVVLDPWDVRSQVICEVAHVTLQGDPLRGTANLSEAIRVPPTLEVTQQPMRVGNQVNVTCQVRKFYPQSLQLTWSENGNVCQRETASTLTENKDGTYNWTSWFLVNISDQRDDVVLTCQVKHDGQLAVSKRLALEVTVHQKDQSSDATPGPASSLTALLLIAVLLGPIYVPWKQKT
Procedure: SIRPβ1 (signal regulatory protein β1: the amino acid sequence thereof is published as RefSeq accession number NP_006056) and SIRPγ (signal regulatory protein γ: the amino acid sequence thereof is published as RefSeq accession number NP_061026) are molecules belonging to the SIRPA family. In the present invention, “SIRPα” may be referred to as “SIRPA,” “SIRPβ1” may be referred to as […] and “SIRPγ” may be referred to as “SIRPG.” CHO-K1 cells were prepared in a 10% FBS-containing Ham's F-12K medium at 3.3×10⁵ cells/mL and cultured overnight at 37° C. under a 5% CO₂ condition. pFLAG V5-DEST-human SIRPβ, pFLAG V5-DEST-human SIRPG, or pFLAG V5-DEST was introduced into the cells using Lipofectamine LTX (Invitrogen), and cells were cultured in a 10% FBS-containing Ham's F-12K medium at 37° C. under a 5% CO₂ condition for 24 hours. The obtained introduced cells were collected and seeded on a 96-well plate. After the culture supernatant was removed, 100 μL per well of various anti-human SIRPA antibodies or various control human IgG was added to each of various gene introduced cells at a final concentration of 0 to 10,000 ng/mL, and the mixture was allowed to stand at 4° C. for 25 minutes. After the mixture was centrifuged, the supernatant was removed, and cells were washed twice with 5% FBS-containing PBS. […]
as §2, with “For data analysis, FlowJo (TreeStar) was used.” left out

[5] = target: T5, SIRPA_V1_IgV (human, UniProt P78324 31-149); test: SPR Biacore T200, antibody captured on anti-human IgG (Fc), SIRPA_V1_IgV as analyte (0.25 to 16 nM), 1:1 model
T5 construct: Secreted recombinant protein from FreeStyle 293F cells
T5 sequence (P78324 other isoform, or with tags, fused parts or gaps limits assumed): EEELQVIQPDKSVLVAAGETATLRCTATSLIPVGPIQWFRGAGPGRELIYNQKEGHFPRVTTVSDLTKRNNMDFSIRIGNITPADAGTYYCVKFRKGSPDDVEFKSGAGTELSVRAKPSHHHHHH
Procedure: (§3) The dissociation constants were measured by a capture method comprising capturing each antibody as a ligand to an Anti-Human IgG (Fc) antibody immobilized using Human Antibody Capture Kit (GE Healthcare Bioscience Corp.) and measuring an antigen as an analyte, using Biacore T200 (GE Healthcare Bioscience Corp.). HBS-EP+ (GE Healthcare Bioscience Corp.) was used as a running buffer, and CM5 (GE Healthcare Bioscience Corp.) was used as a sensor chip. Onto the chip, 2 μg/mL of various antibodies were added at 10 μL/min for 30 seconds, then a serially diluted solution (0.25 to 16 nM) of the human SIRPA protein as an antigen was added at a flow rate of 30 μL/min for 120 seconds, and subsequently the dissociation phase for 600 seconds was monitored. As a regenerant, 3 M magnesium chloride (GE Healthcare Bioscience Corp.) was added at a flow rate of 20 μL/min for 30 seconds. For data analysis, a binding rate constant (ka), a dissociation rate constant (kd), and a dissociation constant (KD; KD=kd/ka) were calculated using a 1:1 binding model.

[6] = target: T6, SIRPA_V2_IgV (human); test: SPR Biacore T200, antibody captured on anti-human IgG (Fc), SIRPA_V2_IgV as analyte (0.25 to 16 nM), 1:1 model
T6 construct: Secreted recombinant protein; The crystal model held residues 33 to 143 of human SIRPA Variant 2
T6 sequence (chain, as listed by the source limits assumed): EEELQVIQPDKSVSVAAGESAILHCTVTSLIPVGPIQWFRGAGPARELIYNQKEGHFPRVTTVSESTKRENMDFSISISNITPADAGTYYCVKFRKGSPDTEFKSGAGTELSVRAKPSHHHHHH
Procedure: as §3

T1 sequence (P78324 other isoform, or with tags, fused parts or gaps limits assumed): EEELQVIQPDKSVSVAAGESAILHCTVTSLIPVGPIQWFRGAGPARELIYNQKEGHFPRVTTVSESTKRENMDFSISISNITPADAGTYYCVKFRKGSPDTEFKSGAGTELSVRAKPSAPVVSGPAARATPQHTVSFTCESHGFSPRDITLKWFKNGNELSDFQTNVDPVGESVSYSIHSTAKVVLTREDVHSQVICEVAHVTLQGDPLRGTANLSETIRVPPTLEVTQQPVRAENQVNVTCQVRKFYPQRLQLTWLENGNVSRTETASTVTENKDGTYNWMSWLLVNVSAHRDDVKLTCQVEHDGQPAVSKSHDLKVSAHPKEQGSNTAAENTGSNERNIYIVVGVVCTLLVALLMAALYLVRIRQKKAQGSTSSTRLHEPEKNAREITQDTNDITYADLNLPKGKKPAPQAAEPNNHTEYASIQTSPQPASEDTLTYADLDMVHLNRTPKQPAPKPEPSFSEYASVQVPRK

IC50 [1]: 2.19 µg/mL | binding result [2]: binds | IC50 [3]: 2.24 µg/mL | EC50 (read off the curve) [4]: ~0.03 µg/mL | Kd [5]: 2.55 nM | Kd [6]: 4.46 nM
B1: KWAR23 (antibody, human IgG4 S228P, kappa, V domains shown)
VH: EVQLQQSGAELVKPGASVKLSCTASGFNIKDYYIHWVQQRTEQGLEWIGRIDPEDGETKYAPKFQDKATITADTSSNTAYLHLSSLTSEDTAVYYCARWGAYWGQGTLVTVSA
VL: QIVLTQSPAIMSASPGEKVTLTCSASSSVSSSYLYWYQQKPGSSPKLWIYSTSNLASGVPARFSGSGSGTSYSLTISSMEAEDAASYFCHQWSSYPRTFGAGTKLELKR
notes: IgG4Pro heavy chain; also called KWAR23_hG4Pro / KWAR23_hK
